In patent US20110002929A1 (Ablynx, published 2011):
Like-named read-outs stand apart in the source and are kept apart here.

T1: human RANK-L (human, UniProt O14788 140-317, limits assumed)
T1 construct: Soluble protein, used coated, biotinylated or labelled in ELISA, AlphaScreen, FMAT and Biacore; also called hRANK-L; soluble human RANK-L
T1 sequence (looked up): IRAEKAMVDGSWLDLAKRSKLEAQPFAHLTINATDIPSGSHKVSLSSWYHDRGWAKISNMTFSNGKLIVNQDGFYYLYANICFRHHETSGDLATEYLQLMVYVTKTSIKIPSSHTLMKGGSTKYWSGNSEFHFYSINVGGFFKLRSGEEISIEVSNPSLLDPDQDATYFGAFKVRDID

T2: human RANK-L, full length, membrane-bound, expressed on HEK293T cells (human, UniProt O14788 1-317)
T2 construct: whole, on cells; also called hRANK-L
T2 sequence (looked up): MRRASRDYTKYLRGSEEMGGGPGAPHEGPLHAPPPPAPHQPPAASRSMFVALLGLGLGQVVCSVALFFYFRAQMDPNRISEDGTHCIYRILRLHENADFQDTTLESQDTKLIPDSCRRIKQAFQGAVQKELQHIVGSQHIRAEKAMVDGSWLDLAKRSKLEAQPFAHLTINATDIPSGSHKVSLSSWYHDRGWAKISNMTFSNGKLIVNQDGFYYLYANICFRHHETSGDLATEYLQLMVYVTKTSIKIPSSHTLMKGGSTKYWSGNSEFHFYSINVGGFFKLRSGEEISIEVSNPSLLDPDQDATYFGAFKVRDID

T3: cynomolgus RANK-L, full length, membrane-bound, expressed on HEK293T cells (cynomolgus monkey, UniProt A0A7N9DBU4 1-317)
T3 construct: whole, on cells; also called cyno RANK-L
T3 sequence: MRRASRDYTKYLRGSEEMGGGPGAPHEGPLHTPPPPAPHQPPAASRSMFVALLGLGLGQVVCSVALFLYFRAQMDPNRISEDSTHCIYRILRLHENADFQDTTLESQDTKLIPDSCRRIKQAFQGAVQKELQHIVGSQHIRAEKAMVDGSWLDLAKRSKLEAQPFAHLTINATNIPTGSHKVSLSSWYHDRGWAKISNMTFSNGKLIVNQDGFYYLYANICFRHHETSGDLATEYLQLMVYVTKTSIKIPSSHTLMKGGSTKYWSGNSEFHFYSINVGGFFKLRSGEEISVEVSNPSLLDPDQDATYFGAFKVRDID

T4: CD40 ligand (UniProt P29965 113-261, limits assumed)
T4 sequence (looked up): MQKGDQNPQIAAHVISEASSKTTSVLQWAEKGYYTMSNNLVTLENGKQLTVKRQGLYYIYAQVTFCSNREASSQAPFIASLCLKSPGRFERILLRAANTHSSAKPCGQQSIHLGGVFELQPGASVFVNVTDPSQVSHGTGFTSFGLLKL


Experiments:
[1] = molecular target: T1, human RANK-L; experiment: ELISA (ED50), biotin-hRANK-L on neutravidin
In short: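 Nanobodies at 500 nM to 160 pM in 1% casein/PBS incubated 1 h at room temperature; binding detected via anti-myc then anti-mouse-HRP with TMB, OD 450 nm.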

[2] = molecular target: T1, human RANK-L; experiment: AlphaScreen, biotin-hRANK-L / RANK-huFc beads
[3] = molecular target: T1, human RANK-L; experiment: AlphaScreen, biotin-hRANK-L / RANK-huFc beads; remark: listed apart in the source
[4] = molecular target: T1, human RANK-L; experiment: AlphaScreen, biotin-hRANK-L / RANK-huFc beads; remark: listed apart in the source
[5] = molecular target: T2, human RANK-L, full length, …; experiment: FACS, HEK293T with human RANK-L, 80 pM Nanobody
Protocol: (§1) Human embryonic kidney cells (HEK293T) were grown in Dulbecco's modified Eagles's medium supplemented with 10% fetal bovine serum (FBS), […] L-glutamine, 0.4 mM sodium pyruvate. […] After 48 hours, transfected cells were subjected to FACS analysis. […] Then cells were washed three times with FACS buffer. Bound Nanobodies were detected by subsequent incubations of a primary mouse anti Myc antibody (30 min at 4° C. (2 μg/ml)) and a second incubation with goat anti mouse-Phycoerythrin (PE) (Jackson Laboratories) for another 30 min at 4° C. Finally, after washing, the cells were resuspended in PBS+10% FBS+TO-PRO®-3 (5 nM) (Molecular Probes®, Invitrogen, Merelbeke, Belgium) and cell surface fluorescence expressed as mean PE fluorescence, was measured using flow cytometry.

[6] = molecular target: T2, human RANK-L, full length, …; experiment: FACS, HEK293T with human RANK-L, 400 pM Nanobody
Protocol: as §1

[7] = molecular target: T2, human RANK-L, full length, …; experiment: FACS, HEK293T with human RANK-L, 2000 pM Nanobody
Protocol: as §1

[8] = molecular target: T3, cynomolgus RANK-L, full length, …; experiment: FACS, HEK293T with cynomolgus RANK-L, 400 pM Nanobody
Protocol: as §1

[9] = molecular target: T5, TNFα (UniProt P01375 77-233); experiment: competition ELISA on RANK-L-coated plates, 1 nM Nanobody preincubated with the ligand
T5 construct: also called TNF-alpha

[10] = molecular target: T4, CD40 ligand; experiment: as above
[11] = molecular target: T6, TRAIL (UniProt P50591 114-281, limits assumed); experiment: as above
T6 construct: also called tumor necrosis factor-related apoptosis inducing ligand

[12] = molecular target: T1, human RANK-L; experiment: SPR Biacore 3000, hRANK-L on CM5, 100 nM Nanobody; only indicative (one concentration)
Protocol: Binding kinetics of the humanized versions of Nanobodu RANL13 were also analysed by Surface Plasmon Resonance (Biacore 3000). […] Nanobody binding was assessed at one concentration (100 nM). Each Nanobody was injected for 4 minutes at a flow rate of 45 μl/min to allow binding to chip-bound antigen. Next, binding buffer without Nanobody was sent over the chip at the same flow rate to allow spontaneous dissociation of bound Nanobody.

T5 sequence (P01375 77-233 limits assumed): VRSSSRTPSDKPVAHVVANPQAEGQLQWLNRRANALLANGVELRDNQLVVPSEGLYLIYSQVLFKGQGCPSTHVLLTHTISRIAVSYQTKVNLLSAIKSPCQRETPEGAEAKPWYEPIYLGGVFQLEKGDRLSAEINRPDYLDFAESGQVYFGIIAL
T6 sequence (P50591 114-281 limits assumed): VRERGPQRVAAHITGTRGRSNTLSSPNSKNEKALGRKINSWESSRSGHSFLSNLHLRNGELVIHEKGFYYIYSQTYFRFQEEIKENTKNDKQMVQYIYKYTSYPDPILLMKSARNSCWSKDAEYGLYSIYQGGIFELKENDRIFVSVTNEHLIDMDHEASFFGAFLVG

| EC50 [1] [nM] | IC50 [2] [nM] | IC50 [3] [nM] | IC50 [4] [nM] | PE mean fluorescence [5] | PE mean fluorescence [6] | PE mean fluorescence [7] | PE mean fluorescence [8] | Kd [12] [nM] | kon [12] [M⁻¹ s⁻¹] | Binder | binding result [9] | binding result [10] | binding result [11] |
| --- | --- | --- | --- | --- | --- | --- | --- | --- | --- | --- | --- | --- | --- |
| 0.226 | 0.147 | 0.174 | 0.12 | 1530 | 5220 | 13900 | 4110 | 0.5 | 500000 | RANKL13 (VHH, not shown: small tags and cut ends) VHH: EVQLVESGGGLVQAGGSLRLSCAASGRTFRSYPMGWFRQAPGKEREFVASITGSGGSTYYADSVKGRFTISRDNAKNTVYLQMNSLRPEDTAVYSCAAYIRPDTYLSRDYRKYDYWGQGTQVTVSS | no binding (tested: approximately 100 nM) | no binding (tested: approximately 100 nM) | no binding (tested: approximately 100 nM) |
| 0.242 | 0.187 | 0.292 | 0.253 | 649 | 2330 | 7630 | 3490 | 0.18 | 310000 | RANKL18 (VHH, not shown: small tags and cut ends) VHH: EVQLVESGGGLVQAGGSLRLSCAASGRTFSRSAMGWFRQAPGKEREFVGFITGSGGTTYYGESVKGRFTISRDNAQNPVYLQMNSLKPEDTAVYYCGVYRRTYISSTYSESSEYDYWGQGTQVTVSS | no binding (tested: approximately 100 nM) | no binding (tested: approximately 100 nM) | no binding (tested: approximately 100 nM) |
